Assay results reported in patent publication US20200392228A1 (PANDION OPERATIONS, published 2020).
Substitutions are numbered along the chain they refer to. Like-named read-outs stand apart in the source and are kept apart here.

T1: human MAdCAM expressed on cells (human, UniProt Q13477 19-382)
T1 construct: whole, on cells; also called MADCAM1
T1 sequence (looked up): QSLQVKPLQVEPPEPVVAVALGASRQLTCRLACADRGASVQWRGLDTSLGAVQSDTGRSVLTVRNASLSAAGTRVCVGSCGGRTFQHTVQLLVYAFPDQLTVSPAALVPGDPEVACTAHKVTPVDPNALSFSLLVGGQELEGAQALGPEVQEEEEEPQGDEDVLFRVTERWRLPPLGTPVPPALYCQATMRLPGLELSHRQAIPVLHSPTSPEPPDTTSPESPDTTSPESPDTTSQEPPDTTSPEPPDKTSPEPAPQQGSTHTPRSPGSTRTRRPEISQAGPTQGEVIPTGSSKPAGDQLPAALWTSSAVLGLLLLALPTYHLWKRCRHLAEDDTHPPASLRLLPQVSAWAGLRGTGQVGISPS

T2: mouse MAdCAM expressed on cells (mouse, UniProt Q61826 22-405)
T2 construct: whole, on cells
T2 sequence (looked up): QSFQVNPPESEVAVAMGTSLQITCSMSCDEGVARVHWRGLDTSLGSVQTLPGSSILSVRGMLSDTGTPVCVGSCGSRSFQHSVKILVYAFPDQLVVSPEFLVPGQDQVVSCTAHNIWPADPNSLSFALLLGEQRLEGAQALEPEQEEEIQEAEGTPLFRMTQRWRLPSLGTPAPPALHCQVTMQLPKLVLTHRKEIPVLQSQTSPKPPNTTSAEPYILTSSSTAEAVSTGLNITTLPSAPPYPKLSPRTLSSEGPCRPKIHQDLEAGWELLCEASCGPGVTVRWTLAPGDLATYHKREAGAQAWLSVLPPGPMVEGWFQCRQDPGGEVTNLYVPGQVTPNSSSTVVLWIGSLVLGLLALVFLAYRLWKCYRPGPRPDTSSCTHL

B1: MAdCAM antibody Clone ID 27 of Table 6 (scFv) (scFv)
scFv: QVQLVQSGAEVKKPGASVKVSCKASGYTFTGYYIHWVRQAPGQGLEWMGWMNPNSGNTGYAQKFQGRVTMTRDTSTSTVYMELSSLRSEDTAVYYCARDPGFLGYCSGGSCYDGWFDPWGQGTLVTVSSGGGGSGGGGSGGGGSGGGGSDIQMTQSPSSLSASVGDRVTITCRASQSISSYLHWYQQKPGKAPKLLIYAASSLQSGVPSRFSGSGSGTDFTLTISSLQPEDFATYYCQQSYTAPYTFGQGTKLEIK
B2: MAdCAM antibody Clone ID 1 of Table 7 (IgG) (antibody, V domains shown)
VH: EVQLLESGGGLVQPGGSLRLSCAASGFTFSSYGMHWVRQAPGKGLEWVAVISDDGSDKYYADSVKGRFTISRDNSKNTLYLQMNSLRAEDTAVYYCTTSKYYYYYGMDVWGQGTTVTVSS
VL: DIQMTQSPSSLSASVGDRVTITCQASQDISKSLNWYQQKPGKAPKLLIYAASSLQSGVPSRFSGSGSGTDFTLTISSLQPEDFATYYCQQGYSTPLTFGGGTKVEIK
notes: IgG format
B3: MAdCAM antibody Clone ID 29 of Table 6 (scFv) (scFv)
scFv: QVQLVQSGAEVKKPGASVKVSCKASGYTFTSYYMHWVRQAPGQGLEWMAWMNPNSGNTGYAQKFQGRVTMTRDTSTSTVYMELSSLRSEDTAVYYCARDYDFWSGSLGYWGQGTLVTVSSGGGGSGGGGSGGGGSGGGGSDIQMTQSPSSLSASVGDRVTITCRASQGISNYLAWYQQKPGKAPKLLIYAASSLQSGVPSRFSGSGSGTDFTLTISSLQPEDFATYYCQQSYSTPWTFGQGTKVEIK
B4: MAdCAM antibody Clone ID 39 of Table 6 (scFv) (scFv)
scFv: QVQLVQSGAEVKKPGASVKVSCKASGYTFTSYYMHWVRQAPGQGLEWMGWMNPNSGNTGYAQKFQGRVTMTRDTSTSTVYMELSSLRSEDTAVYYCARDLGYYDSSGYFGAFDIWGQGTTVTVSSGGGGSGGGGSGGGGSGGGGSDIQMTQSPSSLSASVGDRVTITCQSSEDISSSLNWYQQKPGKAPKLLIYAASSLQIGVPSRFSGSGSGTDFTLTISSLQPEDFATYYCQQTYSTPYTFGQGTKVEIK
B5: MAdCAM antibody Clone ID 37 of Table 6 (scFv) (scFv)
scFv: QVQLVQSGAEVKKPGASVKVSCKASGYTFSKHFVHWVRQAPGQGLEWMGWMNPNSGNSGYAQKFQGRVTMTRDTSTSTVYMELSSLRSEDTAVYYCARGEGGYYYYGMDVWGQGTLVTVSSGGGGSGGGGSGGGGSGGGGSDIQMTQSPSSLSASVGDRVTITCRASQSISSWLAWYQQKPGKAPKLLIYAASTLQSGVPSRFSGSGSGTDFTLTISSLQPEDFATYYCQQSYSTPWTFGQGTKVEIK
B6: MAdCAM antibody Clone ID 33 of Table 6 (scFv) (scFv)
scFv: QVQLVQSGAEVKKPGASVKVSCKASGYTFTSYGISWVRQAPGQGLEWMGWMHPKSGDTGLTQKFQGRVTMTRDTSTSTVYMELSSLRSEDTAVYYCARDTPYYYYGMDVWGQGTTVTVSSGGGGSGGGGSGGGGSGGGGSDIQMTQSPSSLSASVGDRVTITCRASQSISSWLAWYQQKPGKAPKLLIYAASSLQSGVPSRFSGSGSGTDFTLTISSLQPEDFATYYCQQSYSVPITFGQGTKVEIK
B7: MAdCAM antibody Clone ID 21 of Table 6 (scFv) (scFv)
scFv: EVQLLESGGGLVQPGGSLRLSCAASGFTFSNAWMSWVRQAPGKGLEWVSTIVGNGGATYYADSVKGRFTISRDNSKNTLYLQMNSLRAEDTAVYYCARDNPLRWQGMDVWGQGTLVTVSSGGGGSGGGGSGGGGSGGGGSDIQMTQSPSSLSASVGDRVTITCRASQDISNYLNWYQQKPGKAPKLLIYAASSLQSGVPSRFSGSGSGTDFTLTISSLQPEDFATYYCQQSYSIPPTFGPGTKVDIK
B8: MAdCAM antibody Clone ID 31 of Table 6 (scFv) (scFv)
scFv: QVQLVQSGAEVKKPGASVKVSCKASGYTFTSYYMHWVRQAPGQGLEWMGIINPSGGSTSYAQKFQGRVTMTRDTSTSTVYMELSSLRSEDTAVYYCARDTGYSYGRYYYYGMDVWGQGTLVTVSSGGGGSGGGGSGGGGSGGGGSDIQMTQSPSSLSASVGDRVTITCRASQSIGRWLAWYQQKPGKAPKLLIYDASNLQSGVPSRFSGSGSGTDFTLTISSLQPEDFATYYCQQSYSIPITFGQGTKVEIK
B9: MAdCAM antibody Clone ID 36 of Table 6 (scFv) (scFv)
scFv: B8 scFv with S31G, Y32H, L120T, Q245G
B10: MAdCAM antibody Clone ID 28 of Table 6 (scFv) (scFv)
scFv: QVQLVQSGAEVKKPGASVKVSCKASGYTFTDYFLHWVRQAPGQGLEWMGWMNPTSGNTGYAQKFQGRVTMTRDTSTSTVYMELSSLRSEDTAVYYCAREGEGSGFDYWGQGTLVTVSSGGGGSGGGGSGGGGSGGGGSDIQMTQSPSSLSASVGDRVTITCRASQGINSWLAWYQQKPGKAPKLLIYDASNLETGVPSRFSGSGSGTDFTLTISSLQPEDFATYYCQQSYSTPLTFGGGTKVEIK
B11: MAdCAM antibody Clone ID 38 of Table 6 (scFv) (scFv)
scFv: EVQLLESGGGLVQPGGSLRLSCAASGFTFGSYSMSWVRQAPGKGLEWVSAIGTGGGTYYADSVKGRFTISRDNSKNTLYLQMNSLRAEDTAVYYCAKGTPYYYYYGMDVWGQGTMVTVSSGGGGSGGGGSGGGGSGGGGSDIQMTQSPSSLSASVGDRVTITCRASQPLSNWLAWYQQKPGKAPKLLIYAASSLQSGVPSRFSGSGSGTDFTLTISSLQPEDFATYYCQQAISFPLTFGGGTKVEIK
B12: MAdCAM antibody Clone ID 32 of Table 6 (scFv) (scFv)
scFv: QVQLVQSGAEVKKPGASVKVSCKASGYTLTDYYMHWVRQAPGQGLEWMGIINPSGGSTSYAQKFQGRVTMTRDTSTSTVYMELSSLRSEDTAVYYCAREEYSSSSGYFDYWGQGTLVTVSSGGGGSGGGGSGGGGSGGGGSDIQMTQSPSSLSASVGDRVTITCRASQGISSWLAWYQQKPGKAPKLLIYAASSLQSGVPSRFSGSGSGTDFTLTISSLQPEDFATYYCQQSYSTPLTFGQGTKVEIK
B13: MAdCAM antibody Clone ID 35 of Table 6 (scFv) (scFv)
scFv: EVQLLESGGGLVQPGGSLRLSCAASGFSFSSYTMNWVRQAPGKGLEWVSFITSSSRTIYYADSVKGRFTISRDNSKNTLYLQMNSLRAEDTAVYYCARDRRGDYGDSWYFDLWGRGTLVTVSSGGGGSGGGGSGGGGSGGGGSEIVMTQSPATLSVSPGERATLSCRASQSVRNYLAWYQQKPGQAPRLLIYGASTRATGIPARFSGSGSGTEFTLTISSLQSEDFAVYYCQQYGSSPLTFGGGTKVEIK
B14: MAdCAM antibody Clone ID 17 of Table 6 (scFv) (scFv)
scFv: EVQLLESGGGLVQPGGSLRLSCAASGFTFSDSAMHWVRQAPGKGLEWVSAISGSGSTIYYADSVKGRFTISRDNSKNTLYLQMNSLRAEDTAVYYCVSDIAVAGHWYFDLWGRGTLVTVSSGGGGSGGGGSGGGGSGGGGSDIQMTQSPSSLSASVGDRVTITCRASQSISTFLNWYQQKPGKAPKLLIYAASRLEGGVPSRFSGSGSGTDFTLTISSLQPEDFATYYCQQANSFPLTFGPGTKVDIK

Columns and labels:
Assay in all cases: cell binding
[1] = biological target: T1, human MAdCAM expressed on cells
[2] = biological target: T2, mouse MAdCAM expressed on cells
[3] = biological target: T1, human MAdCAM expressed on cells; remark: listed apart in the source
[4] = biological target: T2, mouse MAdCAM expressed on cells; remark: listed apart in the source

Binder | binding result [1] | binding result [2] | binding result [3] | binding result [4]
B1 | binds | no binding |  | 
B2 |  |  | binds | binds
B3 | binds | no binding |  | 
B4 | binds | no binding |  | 
B5 | binds | no binding |  | 
B6 | binds | no binding |  | 
B7 | binds | no binding |  | 
B8 | binds | no binding |  | 
B9 | binds | no binding |  | 
B10 | binds | no binding |  | 
B11 | binds | no binding |  | 
B12 | binds | no binding |  | 
B13 | binds | no binding |  | 
B14 | binds | no binding |  | 
